Positions count from the first letter of the chain named. Names may count otherwise.
B1: H240-Kn120/H240-Hl068/L73-k0 (antibody, human IgG1, kappa)
heavy 1: QDQLVQSGAEVKKPGASVKVSCKASGFNIKDTYIQWVRQAPGQGLEWMGRIDPLRKQTKYREKFEGRVTITADTSTNTAYMELSSLRSEDTAVYYCVRSGREFDYWGQGTLVTVSSASTKGPSVFPLAPSSKSTSGGTAALGCLVKDYFPEPVTVSWNSGALTSGVHTFPAVLQSSGLYSLSSVVTVPSSSLGTQTYICNVNHKPSNTKVDKKVEPKSCDKTHTCPPCPAPEYYWGPMVFLFPPKPKDTLMISRTPEVTCVVVDVSDEDPEVKFNWYVDGVEVHNAKTKPREEQYNATYRVVSVLTVLHQDWLNGKEYKCKVSNKDLPAPIEKTISKAKGQPREPQVCTLPPSRDELTKNQVSLWCLVKGFYPSDIAVEWESNGQPENNYKTTPPVLDSDGSFFLYSKLTVDKSRWQQGNVFSCSVMHEALHNHYTQKSLSLSP
heavy 2: QDQLVQSGAEVKKPGASVKVSCKASGFNIKDTYIQWVRQAPGQGLEWMGRIDPLRKQTKYREKFEGRVTITADTSTNTAYMELSSLRSEDTAVYYCVRSGREFDYWGQGTLVTVSSASTKGPSVFPLAPSSKSTSGGTAALGCLVKDYFPEPVTVSWNSGALTSGVHTFPAVLQSSGLYSLSSVVTVPSSSLGTQTYICNVNHKPSNTKVDKKVEPKSCDKTHTCPPCPAPELLGGPSVFLFPPKPKDTLMISRTPEVTCVVVDVSHEEPEVKFNWYVDGVEVHNAKTKPREEQYNSTYRVVSVLTVLHQDWLNGKEYKCKVSNDALPKPIEETISKAKGQPREPQVYTLPPSRCELTKNQVSLSCAVKGFYPSDIAVEWESNGQPENNYKTTPPVLDSDGSFFLVSKLTVDKSRWQQGNVFSCSVMHEALHNHYTQKSLSLSP
light: DIQMTQSPSSLSASVGDRVTITCRASQDIHKYIAWYQQKPGQAPRLLIQYTSTLQPGVPSRFSGSGSGTDYTFTISSLQPEDIATYYCLQYEQLRTFGGGTKVEIKRTVAAPSVFIFPPSDEQLKSGTASVVCLLNNFYPREAKVQWKVDNALQSGNSQESVTEQDSKDSTYSLSSTLTLSKADYEKHKVYACEVTHQGLSSPVTKSFNRGEC
notes: Heterodimerized anti-epiregulin IgG1 antibody (knobs-into-holes); also called H240-Kn120/H240-HI068/L73-k0
B2: H240-Kn149/H240-Hl068/L73-k0 (antibody, human IgG1, kappa)
heavy 1: B1 heavy 1 with L327W, K333L
heavy 2: B1 heavy 2
light: B1 light
notes: Heterodimerized anti-epiregulin IgG1 antibody; L328W and K334L introduced into H240-Kn120; also called H240-Kn149/H240-HI068/L73-k0
B3: H240-Kn138/H240-Hl147/L73-k0 (antibody, human IgG1, kappa)
heavy 1: B1 heavy 1 with L327W
heavy 2: B1 heavy 2 with L327W
light: B1 light
notes: Anti-epiregulin IgG1 antibody; L328W introduced into both H chains of H240-Kn120/H240-Hl068/L73-k0; also called H240-Kn138/H240-HI147/L73-k0
B4: H240-Kn166/H240-Hl170/L73-k0 (antibody, human IgG1, kappa)
heavy 1: B1 heavy 1 with L327A
heavy 2: B1 heavy 2 with L327A
light: B1 light
notes: Anti-epiregulin IgG1 antibody; L328A introduced into both H chains of H240-Kn120/H240-Hl068/L73-k0; also called H240-Kn166/H240-HI170/L73-k0
B5: H240-Kn120/H240-Hl174/L73-k0 (antibody, human IgG1, kappa)
heavy 1: B1 heavy 1
heavy 2: B1 heavy 2 with I331E
light: B1 light
notes: Heterodimerized anti-epiregulin IgG1 antibody; I332E introduced into H240-Hl068; also called H240-Kn120/H240-HI174/L73-k0
B6: H240-Kn138/H240-Hl068/L73-k0 (antibody, human IgG1, kappa)
heavy 1: B1 heavy 1 with L327W
heavy 2: B1 heavy 2
light: B1 light
notes: Heterodimerized anti-epiregulin IgG1 antibody; L328W introduced into H240-Kn120; also called H240-Kn138/H240-HI068/L73-k0
B7: H240-Kn120/H240-Hl182/L73-k0 (antibody, human IgG1, kappa)
heavy 1: B1 heavy 1
heavy 2: B1 heavy 2 with A230H
light: B1 light
notes: Heterodimerized anti-epiregulin IgG1 antibody; A231H introduced into H240-Hl068; also called H240-Kn120/H240-HI182/L73-k0
B8: H240-Kn120/H240-Hl170/L73-k0 (antibody, human IgG1, kappa)
heavy 1: B1 heavy 1
heavy 2: B1 heavy 2 with L327A
light: B1 light
notes: Heterodimerized anti-epiregulin IgG1 antibody; L328A introduced into H240-Hl068; also called H240-Kn120/H240-HI170/L73-k0
B9: H240-Kn120/H240-Hl150/L73-k0 (antibody, human IgG1, kappa)
heavy 1: B1 heavy 1
heavy 2: B1 heavy 2 with I331T
light: B1 light
notes: Heterodimerized anti-epiregulin IgG1 antibody; I332T introduced into H240-Hl068; also called H240-Kn120/H240-HI150/L73-k0

target: T1, FcgRIa (human, UniProt P12314 16-292); test: SPR (Biacore), antibody captured, FcgR as analyte
T1 construct: extracellular domain; Soluble extracellular domain with C-terminal His tag, expressed in FreeStyle293 cells; also called FcγRIa; FcγRI; not shown: His tag attached to the C terminus
T1 sequence (P12314 16-292): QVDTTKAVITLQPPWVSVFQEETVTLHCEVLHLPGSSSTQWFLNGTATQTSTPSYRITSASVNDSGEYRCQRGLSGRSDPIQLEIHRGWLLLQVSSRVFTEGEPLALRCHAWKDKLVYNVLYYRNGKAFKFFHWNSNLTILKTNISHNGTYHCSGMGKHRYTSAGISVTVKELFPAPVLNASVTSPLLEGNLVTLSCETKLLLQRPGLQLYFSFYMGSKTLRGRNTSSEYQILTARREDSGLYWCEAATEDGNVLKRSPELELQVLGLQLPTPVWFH
Protocol: (§1) Analysis of interaction between obj ective antibody and the FcγR was carried out using Biacore T100 (GE Healthcare), Biacore T200, Biacore A100, and Biacore 4000. HBS-EP+ (GE Healthcare) was used as the running buffer, and the measurement temperature was set to 25° C. Chips produced by immobilizing the antigen peptide by the amine coupling method to a Series S sensor Chip CM5 (GE Healthcare), chips produced by allowing preliminarily biotinylated antigen peptides to interact with and immobilize onto a Series S Sensor Chip SA (certified) (GE Healthcare), chips produced by immobilizing Protein L (ACTIGEN, BioVision) to Series S Sencor Chip CM5 (GE Healthcare), or chips produced by immobilizing Protein A/G (Thermo Scientific) to Series S Sencor Chip CM5 (GE Healthcare) were used. Antibodies of interest were captured onto these chips, and allowed to interact to each FcγR diluted with running buffer. To regenerate and repeatedly use the chip, the antibodies captured onto the chip were washed off by reacting 10 mM glycine-HCl, pH 1.5.

| Binder | Kd [nM] |
| --- | --- |
| B1 | 0.16 |
| B2 | 0.38 |
| B3 | 0.31 |
| B4 | 0.066 |
| B5 | 0.14 |
| B6 | 0.16 |
| B7 | 0.18 |
| B8 | 0.19 |
| B9 | 0.39 |

target: T2, FcgRIIaR (human, UniProt P12318 34-217); test: SPR (Biacore), antibody captured, FcgR as analyte
T2 construct: extracellular domain; Soluble extracellular domain with C-terminal His tag; also called FcγRIIa R; FcγRIIa type R; not shown: His tag attached to the C terminus
T2 sequence (looked up): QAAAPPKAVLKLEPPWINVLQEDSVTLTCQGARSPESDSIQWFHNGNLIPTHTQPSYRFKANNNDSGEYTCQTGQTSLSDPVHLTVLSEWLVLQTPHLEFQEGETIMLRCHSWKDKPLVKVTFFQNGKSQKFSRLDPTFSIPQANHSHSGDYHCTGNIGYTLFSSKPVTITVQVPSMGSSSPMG
Protocol: as §1

| Binder | Kd [nM] |
| --- | --- |
| B1 | 20 |
| B2 | 19 |
| B3 | 11 |
| B4 | 31 |
| B5 | 30 |
| B6 | 19 |
| B7 | 40 |
| B8 | 8.6 |
| B9 | 20 |

target: T3, FcgRIIaH (human, UniProt P12318 34-217); test: SPR (Biacore), antibody captured, FcgR as analyte
T3 construct: extracellular domain; Soluble extracellular domain with C-terminal His tag; also called FcγRIIa H; FcγRIIa type H; not shown: His tag attached to the C terminus
T3 sequence (looked up): T2 sequence (looked up) with R134H
Protocol: as §1

| Binder | Kd [nM] |
| --- | --- |
| B1 | 41 |
| B2 | 26 |
| B3 | 130 |
| B4 | 22 |
| B5 | 55 |
| B6 | 25 |
| B7 | 77 |
| B8 | 18 |
| B9 | 35 |

target: T4, FcgRIIb (human, UniProt P31994 43-217); test: SPR (Biacore), antibody captured, FcgR as analyte
T4 construct: extracellular domain; Soluble extracellular domain with C-terminal His tag; also called FcγRIIb; CD32B; not shown: His tag attached to the C terminus
T4 sequence (looked up): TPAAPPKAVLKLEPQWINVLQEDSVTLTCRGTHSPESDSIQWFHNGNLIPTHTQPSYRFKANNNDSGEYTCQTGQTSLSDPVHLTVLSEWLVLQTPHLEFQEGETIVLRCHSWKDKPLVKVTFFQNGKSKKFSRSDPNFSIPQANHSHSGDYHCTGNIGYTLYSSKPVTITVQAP
Protocol: as §1

| Binder | Kd [nM] |
| --- | --- |
| B1 | 150 |
| B2 | 150 |
| B3 | 110 |
| B4 | 200 |
| B5 | 130 |
| B6 | 130 |
| B7 | 240 |
| B8 | 67 |
| B9 | 98 |

target: T5, FcgRIIIaF (human, UniProt P08637 17-208); test: SPR (Biacore), antibody captured, FcgR as analyte
T5 construct: extracellular domain; Soluble extracellular domain with C-terminal His tag; polymorphic site made after J. Clin. Invest; also called FcγRIIIa F; not shown: His tag attached to the C terminus
T5 sequence (P08637 17-208): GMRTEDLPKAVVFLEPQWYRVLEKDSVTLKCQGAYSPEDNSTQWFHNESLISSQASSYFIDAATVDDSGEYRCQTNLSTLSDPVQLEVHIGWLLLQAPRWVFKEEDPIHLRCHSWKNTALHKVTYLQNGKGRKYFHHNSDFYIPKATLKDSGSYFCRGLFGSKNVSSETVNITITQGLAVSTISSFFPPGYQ
Protocol: as §1

| Binder | Kd [nM] |
| --- | --- |
| B1 | 2.2 |
| B2 | 1.5 |
| B3 | 22 |
| B4 | 4.2 |
| B5 | 0.51 |
| B6 | 3.7 |
| B7 | 3.1 |
| B8 | 3.9 |
| B9 | 3 |

target: T6, FcgRIIIaV (human, UniProt P08637 17-208); test: SPR (Biacore), antibody captured, FcgR as analyte
T6 construct: extracellular domain; Soluble extracellular domain with C-terminal His tag; polymorphic site made after J. Clin. Invest; also called FcγRIIIa V; not shown: His tag attached to the C terminus
T6 sequence (P08637 17-208 F176V limits assumed): as the sequence (P08637 17-208) above, with F160V counted along it
Protocol: as §1

| Binder | Kd [nM] |
| --- | --- |
| B1 | 0.36 |
| B2 | 0.32 |
| B3 | 16 |
| B4 | 1 |
| B5 | 0.036 |
| B6 | 0.43 |
| B7 | 0.29 |
| B8 | 0.93 |
| B9 | 0.57 |

target: T1, FcgRIa; test: SPR (Biacore); KD of H240-Kn120/H240-Hl068/L73-k0 divided by KD of this antibody
Protocol: (§2) Analysis of interaction between obj ective antibody and the FcγR was carried out using Biacore T100 (GE Healthcare), Biacore T200, Biacore A100, and Biacore 4000.

| Binder | Relative KD |
| --- | --- |
| B1 | 1 |
| B2 | 0.4 |
| B3 | 0.5 |
| B4 | 2.4 |
| B5 | 1.1 |
| B6 | 1 |
| B7 | 0.9 |
| B8 | 0.8 |
| B9 | 0.4 |

target: T2, FcgRIIaR; test: as above
Protocol: as §2

| Binder | Relative KD |
| --- | --- |
| B1 | 1 |
| B2 | 1.1 |
| B3 | 1.8 |
| B4 | 0.6 |
| B5 | 0.7 |
| B6 | 1.1 |
| B7 | 0.5 |
| B8 | 2.3 |
| B9 | 1 |

target: T3, FcgRIIaH; test: as above
Protocol: as §2

| Binder | Relative KD |
| --- | --- |
| B1 | 1 |
| B2 | 1.6 |
| B3 | 0.3 |
| B4 | 1.9 |
| B5 | 0.7 |
| B6 | 1.6 |
| B7 | 0.5 |
| B8 | 2.3 |
| B9 | 1.2 |

target: T4, FcgRIIb; test: as above
Protocol: as §2

| Binder | Relative KD |
| --- | --- |
| B1 | 1 |
| B2 | 1 |
| B3 | 1.4 |
| B4 | 0.8 |
| B5 | 1.2 |
| B6 | 1.2 |
| B7 | 0.6 |
| B8 | 2.2 |
| B9 | 1.5 |

target: T5, FcgRIIIaF; test: as above
Protocol: as §2

| Binder | Relative KD |
| --- | --- |
| B1 | 1 |
| B2 | 1.5 |
| B3 | 0.1 |
| B4 | 0.5 |
| B5 | 4.3 |
| B6 | 0.6 |
| B7 | 0.7 |
| B8 | 0.6 |
| B9 | 0.7 |

target: T6, FcgRIIIaV; test: as above
Protocol: as §2

| Binder | Relative KD |
| --- | --- |
| B1 | 1 |
| B2 | 1.1 |
| B3 | 0 |
| B4 | 0.4 |
| B5 | 10 |
| B6 | 0.8 |
| B7 | 1.2 |
| B8 | 0.4 |
| B9 | 0.6 |

Source: patent publication US20180155451A1 (published 2018)
